Experimental data taken from the RNAGym collection of RNA variant scans (doi:10.7554/elife.80360).

B1: CPEB3 Ribozyme (parent)
chain: GGGGGCCACAGCAGAAGCGUUCACGUCGCGGCCCCUGUCAGAUUCUGGUGAAUCUGCGAAUUCUGCUGU

Variants of: B1
Assay: self-cleavage, relative activity (ratio to wild type); higher = more cleavage; co-transcriptional

Variant	self-cleavage
G11C G41U	0.238
A10U G37C	0.3
G11A U43C	0.658
G11A U43G	0.4
G11A U43A	0.442
A10U C54G	0.958
A10U C54A	0.902
A10U A16G	0.924
A10U A16U	0.877
C12A C35G	0.189
G11U G65A	0.682
G11A A13C	0.182
G11A A13G	0.184
A10U U46C	0.983
A10U U46A	0.954
G11U U43C	0.768
A10G A59G	0.925
G11A U21G	0.285
A10U U69G	1.06
A10U U69C	1.07
G11A C63U	0.707

Variant	self-cleavage
C12A G14U	0.13
C12A G14A	0.148
A10C U55G	0.799
A10U C29A	0.722
G11A C22G	0.119
A10G G28C	0.169
A10C U64A	0.779
A10C U64C	0.769
A10G U44G	0.71
A10U C57A	0.273
A10U U61G	0.78
A10U U61A	0.911
G11U U53A	0.562
A10G G30A	0.96
A10G G30U	0.704
C12A C66U	0.723
A10G A23C	0.939
A10G U53A	0.651
A10G U53C	0.333
A10U A60G	0.953
G11C G17A	0.103

Variant	self-cleavage
A10G G37U	0.11
A10G G37A	0.219
A10U C27A	0.272
A10U C27U	0.547
G11U U26G	0.635
A10G A42C	0.668
C12A G31A	0.419
C12A G31U	0.258
C12A G31C	0.219
G11C G31U	0.536
G11C G31C	0.167
G11C A60C	0.299
G11U A16G	0.572
G11A U20A	0.157
G11A U44A	0.697
G11U C33U	0.948
C12A G19U	0.111
C12A G19A	0.142
G11C C33A	0.547
G11C C33U	0.827
G11U C45G	0.772

Variant	self-cleavage
G11C C35U	0.758
G11C C35A	0.205
A10G G50A	0.949
A10U G28U	0.14
A10U G28C	0.137
A10U G28A	0.139
G11A C12U	0.549
A10G U55G	0.36
A10G G31C	0.322
A10G A52G	1.01
C12A G37A	0.187
G11A A51C	0.757
A10U A42C	0.937
G11C U20G	0.169
G11C G19U	0.158
G11C G19A	0.0742
G11A U69C	1.03
A10G G58U	0.947
G11C A16C	0.276
G11C A16U	0.49
